Patent US20090143241A1

Target: ClpXP protease (E. coli ClpX6 with ClpP14) (E. coli) (UniProt P0A6H1)
Assay: cell-based or functional assay

Sequence of ClpXP protease (E. coli ClpX6 with ClpP14) (E. coli) (P0A6H1 whole entry, chain 1 of 2): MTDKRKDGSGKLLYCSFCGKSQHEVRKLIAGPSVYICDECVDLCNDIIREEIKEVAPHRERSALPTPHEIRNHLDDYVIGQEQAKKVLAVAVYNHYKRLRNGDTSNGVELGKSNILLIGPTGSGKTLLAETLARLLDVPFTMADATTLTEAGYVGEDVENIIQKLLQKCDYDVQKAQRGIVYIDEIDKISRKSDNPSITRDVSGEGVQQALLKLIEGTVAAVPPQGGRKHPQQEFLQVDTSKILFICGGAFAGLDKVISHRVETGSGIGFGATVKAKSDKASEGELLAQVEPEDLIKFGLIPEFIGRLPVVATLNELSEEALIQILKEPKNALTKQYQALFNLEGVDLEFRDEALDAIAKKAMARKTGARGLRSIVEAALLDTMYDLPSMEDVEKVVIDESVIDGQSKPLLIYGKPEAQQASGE
Sequence of ClpXP protease (E. coli ClpX6 with ClpP14) (E. coli) (P0A6G7 15-207, chain 2 of 2, further chain): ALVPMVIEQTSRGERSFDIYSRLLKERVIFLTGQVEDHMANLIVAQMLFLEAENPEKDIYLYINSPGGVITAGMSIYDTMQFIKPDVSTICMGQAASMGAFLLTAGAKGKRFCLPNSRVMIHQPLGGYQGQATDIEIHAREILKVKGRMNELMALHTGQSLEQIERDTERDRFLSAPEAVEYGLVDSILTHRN

λ O protein, N-terminally His6-tagged (from UniProt P03688 1-333)
half-life of λ O with ClpXP, no inhibitor: 35 min
